How the values were obtained:
IRE1α in TAP1 KO BMDCs = test: IRE1α activation in TAP1-disrupted BMDCs (immunoblot); assay type: cell-based, mouse; details: CRISPR/Cas9 TAP1; ovalbumin 500 μg/ml, 4 h
Method: Figure 1. Antigen pulsing of BMDCs activates IRE1α. (A) BMDCs were pulsed with ovalbumin (starting at 62.5 μg/ml and sequentially doubled) and analyzed by immunoblot (IB) for the indicated markers. (B) BMDCs were pulsed with ovalbumin (starting at 500 μg/ml and sequentially halved) or […] (1 μM), or stimulated with tunicamycin (1 μg/ml) or poly-I:C (25 μg/ml) for 4 h, and analyzed by IB. (C) BMDCs were pulsed with ovalbumin (500 μg/ml) for indicated time points and analyzed by IB. (D) BMDCs were pulsed for 4 h with ovalbumin or lysates derived from the indicated cell lines (500 μg/ml protein) and analyzed by IB. […] (F) Upon removal from bone marrow, total bone marrow cells were transfected with non-targeting control (NTC) or TAP1-targeting gRNAs, along with CRISPR/Cas9 delivery constructs. Cells were then subjected to standard BMDC-differentiation protocol, pulsed with ovalbumin (500 μg/ml) for 4 h, and analyzed by IB. All IB images are representative of at least two similar experiments, and molecular weights represent kD. Source data are available for this figure: SourceData F1.
Cells were lysed in PBS solution supplemented with 1X radioimmunoprecipitation assay buffer (Millipore) and 2X Halt protease-phosphatase inhibitor cocktail (Thermo Fisher Scientific). […]

IRE1α LD-Fc = test: Co-immunoprecipitation of ovalbumin with IRE1α LD-Fc; assay type: binding, human; details: LD-Fc 10 μg/ml, 2 h; ovalbumin 1-300 μg/ml; in words
Method: For experiments testing ovalbumin binding, a human LD-Fc was used at indicated concentrations. LD-Fc is comprised of amino acids M1-D443 of IRE1α fused C-terminally to a linker ([…]) followed by the human IgG1 hinge and Fc portion. Ovalbumin (Sigma-Aldrich) was dissolved in sterile PBS and used in native state or denatured as indicated by incubation at 95°C buffer for 10 min.
For co-immunoprecipitation experiments, IRE1α LD-Fc (10 μg/ml) and ovalbumin (indicated concentrations) were co-incubated in binding buffer (as described above) for 2 h and then immunoprecipitated with anti-IRE1α LD antibody (made in-house at Genentech), conjugated to sepharose beads, overnight at 4°C. Beads were subsequently washed four times with lysis buffer and boiled in SDS sample buffer for 10 min. Samples were then analyzed by SDS-PAGE followed by immunoblot.

B1: ovalbumin: classical protein antigen ovalbumin (Sigma-Aldrich) (protein)
chain: MGSIGAASMEFCFDVFKELKVHHANENIFYCPIAIMSALAMVYLGAKDSTRTQINKVVRFDKLPGFGDSIEAQCGTSVNVHSSLRDILNQITKPNDVYSFSLASRLYAEERYPILPEYLQCVKELYRGGLEPINFQTAADQARELINSWVESQTNGIIRNVLQPSSVDSQTAMVLVNAIVFKGLWEKAFKDEDTQAMPFRVTEQESKPVQMMYQIGLFRVASMASEKMKILELPFASGTMSMLVLLPDEVSGLEQLESIINFEKLTEWTSSNVMEERKIKVYLPRMKMEEKYNLTSVLMAMGITDVFSSSANLSGISSAESLKISQAVHAAHAEINEAGREVVGSAEAGVDAASVSEEFRADHPFLFCIKHIATNAVLFFGRCVSP
IRE1α stimulation upon TAP1 disruption (IRE1α in TAP1 KO BMDCs): prevented IRE1α stimulation | co-immunoprecipitation with IRE1α LD-Fc (IRE1α LD-Fc): did not show appreciable binding
